What was measured:
[1] = molecular target: mEGFP tagged quaternary complexes
[2] = molecular target: mEGFP tagged quaternary complexes; remark: listed apart in the source

| Substance | percent decrease in fluorescence (FRET quench) [1] [%] | percent quenching [2] [%] |
| --- | --- | --- |
| Cul5(N)-sREACh (human Cul5 residues 2-384 with V341R, L345D, C-terminally tagged with sREACh with F46L, Q69M, F223R) | 8 | – |
| sREACh-Cul5(N) (sREACh with F46L, Q69M, F223R, flexible linker, human Cul5 residues 2-384 with V341R, L345D) | – | 20 |
